Source: patent US12558403B2, “Anti-tumor fusion protein, preparation method therefor and application thereof” (GUANGDONG TAIHE MEDICINE SCIENCE & TECHNOLOGY CO., LTD, priority 2020, dated 2026)
Marks after values point to notes of the source that are not given here.

Key:
lung cancer cells H460 = test: Killing of tumor cells by stimulated T cells, CytoTox 96 non-radioactive cytotoxicity assay; conditions: T cells stimulated with 40 μg/mL for 4 days, effector-target ratio 20:1
Description: CytoTox 96 non-radioactive cytotoxicity assay was used to detect the killing effect of L1, L2, D1 and D2 polypeptides (40 μg/mL) on lung cancer cells H460 after stimulating human T lymphocytes for 4 days, respectively.

[1] = system: breast cancer cell line MDA-MB-231; test: as above; assay type: cell-based, human; conditions: effector-target ratio 30:1
Description: (§1) Three protein concentrations (20 μg/mL, 40 μg/mL, 80 μg/mL) of TAT-SHP2-N-SH2 fusion protein were selected to stimulate human T lymphocytes and the killing effect on tumor cells MDA-MB-231 and SW480, respectively at an effector-target ratio of 30:1 was detected by CytoTox 96 non-radioactive cytotoxicity assay.

[2] = system: colon cancer cell line SW480; test: as above; assay type: cell-based, human; conditions: effector-target ratio 30:1
Description: as §1

T lymphocytes [3] = test: T lymphocyte apoptosis, Annexin V-FITC/PI flow cytometry; assay type: cell-based; conditions: 80 μg/mL, 3 days, PD-L1 coated plate, compared with control group
Description: The resuspended cells are added to different groups to treat untreated groups SHP2-NC, SHP2-N-SH2 (80 μg/mL), TAT-SHP2-C-SH2 polypeptide (80 μg/mL), and then continues to culture on EASY-T stimulated plates for 3 d (50 ng of PD-L1 antibody is added 3 hours before adding the cell mixture to coat a 24-well plate at 37° C.), and the cells are collected, detection by flow cytometry after FITC and PI staining; e According to the results of flow cytometry, the proportion of apoptotic cells is counted, compared with the control group, *p<0.05 or **p<0.01.
T lymphocytes were stimulated with recombinant TAT-N-SH2 fusion protein and L1 polypeptide for 3 days and the apoptosis of T lymphocytes in different treatment groups was detected by flow cytometry. […] FIG. 13e, according to the results of flow cytometry, the proportion of apoptotic cells was counted, compared with the control group, *p<0.05 or **p<0.01.

T lymphocytes [4] = test: T lymphocyte proliferation detected by CFSE; assay type: cell-based; conditions: 80 μg/mL, 3 days, control group 62.83%
Description: Compared with the control group, p>0.05 has no statistical significance.
To test whether recombinant TAT-N-SH2 fusion protein and L1 (TAT-SHP2-C-SH2) polypeptide can enhance the proliferation of T lymphocytes, we used 80 μg/mL TAT-SHP2-N-SH2 fusion protein and TAT-SHP2-C-SH2 polypeptide to stimulate T lymphocytes for 3 days, respectively, the proliferation of T lymphocytes was detected by CFSE.

SW480 = test: Direct killing of tumor cells, zenCell owl live cell imaging; assay type: cell-based; conditions: 20, 40, 80 μg/mL, no T cells
Description: (§2) In order to detect whether the recombinant TAT-N-SH2 fusion protein and L1 polypeptide have direct killing effect on tumor cells, we co-cultured different concentrations (20 μg/mL, 40 μg/mL, 80 μg/mL) of recombinant TAT-N-SH2 fusion protein and L1 polypeptide with tumor cells MDA-MB-231 and SW480, and applied zenCell owl live cell dynamic imaging analysis system to observe its effect on tumor cells in real time.

MDA-MB-231 = test: as above; assay type: cell-based; conditions: 20, 40, 80 μg/mL, no T cells
Description: as §2

PD-L1-KO-EMT6 = test: PD-L1 knockout EMT-6 breast cancer xenografts in BALB/c mice; assay type: in vivo
From the text: Tumor weight of mice after 23 d dissection; b. Tumor size; c. Tumor growth curve; Unpaired t-test, compared with control group, *P<0.05, **P<0.01, ***P<0.001.
Recombinant TAT-N-SH2 fusion protein and L1 (TAT-SHP2-C-SH2) polypeptide target the ITIM motif of inhibitory receptors. […] To this end, we constructed a breast cancer EMT-6 cell line stably knocked out PD-L1 (PD-L1-KO-EMT6), inoculated into the mouse mammary fat pad, and the recombinant TAT-N-SH2 fusion protein (N5) and TAT-SHP2-C-SH2 polypeptide (C5) were administered by intraperitoneal injection at 5 μg/mouse, respectively and at the same time, a dose of 50 μg/mouse αPD-1 antibody (αPD-1) was used as the control drug.

MC38 colon cancer [5] = test: MC38 colon cancer in immunodeficient nude mice; assay type: in vivo
From the text: Tumor weight of mice after 30 d dissection; b. Tumor size; c. Tumor growth curve; Unpaired t-test, compared with control group, NS: no statistical difference.
In order to exclude the direct inhibitory effect of recombinant TAT-N-SH2 fusion protein and L1 (TAT-SHP2-C-SH2) polypeptide on tumors, we selected immunodeficient nude mice to inoculate MC38 colon cancer tumors, and started administration 14 days after tumor formation, 4 days to measure the tumor volume, after 30 days, the mice were sacrificed for dissection, and the tumor weight was measured.

EMT breast cancer = EMT breast cancer mouse subcutaneous tumor-bearing model; assay type: in vivo, mice
Description: Tumor weight of mice in different administration groups after 21 d dissection; b. Tumor size; Unpaired t-test, compared with control group, *p<0.05, **p<0.01, ***p<0.001.
We further evaluated the effects of TAT-SHP2SHP2-N-SH2 fusion protein and TAT-SHP2SHP2-C-SH2 polypeptide on tumor growth in mice by establishing a subcutaneous tumor-bearing model of EMT breast cancer mice. We used TAT-SHP2SHP2-C-SH2 polypeptide at 5 μg/mouse (C5), 10 μg/mouse (C10), 15 μg/mouse (C15) and 2 μg/mouse (N2), 5 μg/mouse (N5), 10 μg/mouse (N10), 15 μg/mouse (N15) of TAT-SHP2SHP2-N-SH2 fusion protein were administered by intraperitoneal injection and at the same time, the dose of 50 μg/mouse αPD-1 antibody (αPD-1) was used as the positive control drug.

MC38 colon cancer [6] = test: MC38 colon cancer mouse subcutaneous tumor-bearing model; assay type: in vivo, mice
From the text: A subcutaneous tumor model of MC38 colon cancer mice was established.

ERK, AKT and JNK = test: Phosphorylation of ERK, AKT and JNK in T lymphocytes, Western-blot; assay type: cell-based; conditions: T lymphocytes stimulated 3 days, compared with untreated group
Description: TAT-SHP2-N-SH2 fusion protein treatment group; c. TAT-SHP2 C-SH2 polypeptide treatment group; b, d. According to Western-blot results, with β-actin as an internal reference, grayscale analysis of the phosphorylation expression of JNK, AKT and ERK proteins mediated by T lymphocytes is performed. Unpaired t-test, compared with negative control, **p<0.01, NS has no statistical difference.
The T lymphocytes stimulated by recombinant TAT-N-SH2 fusion protein and L1 (TAT-SHP2-C-SH2) polypeptide for 3 days were collected to detect the changes in the phosphorylation levels of ERK, AKT and JNK molecules.

IL-2 = test: Cytokine IL-2 secreted by T lymphocytes; assay type: cell-based; conditions: T lymphocytes stimulated 3 days, compared with control group
From the text: The T lymphocytes stimulated by recombinant TAT-N-SH2 fusion protein and L1 polypeptide for 3 days were collected to detect the level of cytokine IL-2 secreted.

EMT-6 breast cancer = EMT-6 breast cancer in immune-deficient nude mice; assay type: in vivo; conditions: groups C5/N5, once every other day, 8 doses
From the text: Tumor weight of mice after 21 d dissection; b. Tumor size; c. Tumor growth curve; NS: no statistical difference.
At the same time, we selected immune-deficient nude mice to inoculate EMT-6 breast cancer tumors. After 5 days of tumor formation, they were randomly divided into three groups with 6 mice in each group. Start the administration, the administration dose is the same as above, administered once every other day for a total of 8 doses, 4 days to measure tumor size, the growth curve was drawn, and the mice were sacrificed to measure the body weight on day 21.

[7] = T cells stimulated with 20 μg/ml
[8] = T cells stimulated with 40 μg/ml
[9] = T cells stimulated with 80 μg/ml
[10] = Table 4, 1.25 μg/mouse intraperitoneal, 8 administrations
[11] = Table 4, 2.5 μg/mouse intraperitoneal, 8 administrations
[12] = Table 4, 5 μg/mouse intraperitoneal, 8 administrations
[13] = Table 4, 10 μg/mouse intraperitoneal, 8 administrations
[14] = Table 5, 5 μg/mouse intraperitoneal

CC(C)C[C@@H](NC(=O)[C@H](NC(=O)[C@@H](Cc1ccccc1)NC(=O)[C@@H](CC(=O)O)NC(=O)CNC(=O)[C@H]1CCCN1C(=O)[C@@H](Cc1c[nH]cn1)NC(=O)[C@@H](CO)NC(=O)[C@@H](CCC(N)=O)NC(=O)[C@@H](CO)NC(=O)[C@@H](CCC(=O)O)NC(=O)[C@@H](CCCNC(=N)N)NC(=O)[C@H](NC(=O)[C@H]1CCCN1C(=O)[C@H]1CCCN1C(=O)[C@@H](CCCNC(=N)N)NC(=O)[C@@H](CCCNC(=N)N)NC(=O)[C@@H](CCCNC(=N)N)NC(=O)[C@@H](CCC(N)=O)NC(=O)[C@@H](CCCNC(=N)N)NC(=O)[C@@H](CCCNC(=N)N)NC(=O)[C@@H](CCCCN)NC(=O)[C@@H](CCCCN)NC(=O)[C@@H](CCCNC(=N)N)NC(=O)CNC(=O)[C@H](N)Cc1ccc(O)cc1)C(C)C)C(C)C)C(=O)O [D1]
Cytotoxicity (%) (lung cancer cells H460): 39.43 ± 1.31 %

CC(C)C[C@H](NC(=O)[C@@H](NC(=O)[C@H](Cc1ccccc1)NC(=O)[C@H](CC(=O)O)NC(=O)CNC(=O)[C@@H]1CCCN1C(=O)[C@H](Cc1c[nH]cn1)NC(=O)[C@H](CO)NC(=O)[C@H](CCC(N)=O)NC(=O)[C@H](CO)NC(=O)[C@H](CCC(=O)O)NC(=O)[C@H](CCCNC(=N)N)NC(=O)[C@@H](NC(=O)[C@@H]1CCCN1C(=O)[C@@H]1CCCN1C(=O)[C@H](CCCNC(=N)N)NC(=O)[C@H](CCCNC(=N)N)NC(=O)[C@H](CCCNC(=N)N)NC(=O)[C@H](CCC(N)=O)NC(=O)[C@H](CCCNC(=N)N)NC(=O)[C@H](CCCNC(=N)N)NC(=O)[C@H](CCCCN)NC(=O)[C@H](CCCCN)NC(=O)[C@H](CCCNC(=N)N)NC(=O)CNC(=O)[C@@H](N)Cc1ccc(O)cc1)C(C)C)C(C)C)C(=O)O [L1, YGRKKRRQRRR-PP-VRESQSHPGDFVL]
Cytotoxicity (%) MDA-MB-231 [1, 7]: 5.933 ± 3.955^ns %
Cytotoxicity (%) MDA-MB-231 [1, 8]: 20.55 ± 1.157 %
Cytotoxicity (%) MDA-MB-231 [1, 9]: 34.8 ± 7.424 %
Cytotoxicity (%) SW480 [2, 7]: 20.24 ± 8.943^ns %
Cytotoxicity (%) SW480 [2, 8]: 31.38 ± 3.779 %
Cytotoxicity (%) SW480 [2, 9]: 40.19 ± 8.373 %
Cytotoxicity (%) (lung cancer cells H460): 33.23 ± 2.32 %

B1: TAT-SHP2-N-SH2 fusion protein: TAT penetrating peptide connected to N-terminal SH2 domain of SHP2 through glycine and serine (TAT-Gly-Ser-N-SH2); SEQ ID NO.:4 (protein)
chain: YGRKKRRQRRRGSRWFHPNITGVEAENLLLTRGVDGSFLARPSKSNPGDFTLSVRRNGAVTHIKIQNTGDYYDLYGGEKFATLAELVQYYMEHHGQLKEKNGDVIELKYPLN
modifications: the fusion protein
apoptosis of T lymphocytes (T lymphocytes [3]): significantly decreased
proliferation rate of T lymphocytes (T lymphocytes [4]): 61.05%
direct toxic effect on tumor cells (SW480): no direct toxic effect
direct toxic effect on tumor cells (MDA-MB-231): no direct toxic effect
Tumor inhibition rate % (PD-L1-KO-EMT6; 5 μg/mouse intraperitoneal): 60.5%
Tumor weight (g) (PD-L1-KO-EMT6; 5 μg/mouse intraperitoneal, dissection after 23 d): 0.34 ± 0.20** g
effect on growth of PD-L1-KO-EMT6 tumors (PD-L1-KO-EMT6; N5 and C5 5 μg/mouse, αPD-1 antibody 50 μg/mouse): significantly inhibit the growth of PD-L1-KO-EMT6 tumors
Tumor inhibition rate % (MC38 colon cancer [5]; groups C5/N5): 9.9%
Tumor weight (g) (MC38 colon cancer [5]; groups C5/N5, sacrificed after 30 days): 0.25 ± 0.06^ns g
Tumor inhibition rate % (EMT breast cancer; 2 μg/mouse intraperitoneal): 54.9%
Tumor weight (g) (EMT breast cancer; 2 μg/mouse intraperitoneal): 0.56 ± 0.11* g
Tumor inhibition rate % (EMT breast cancer; 5 μg/mouse intraperitoneal): 70.3%
Tumor weight (g) (EMT breast cancer; 5 μg/mouse intraperitoneal, dissection after 21 d): 0.37 ± 0.10** g
Tumor inhibition rate % (EMT breast cancer; 10 μg/mouse intraperitoneal): 63%
Tumor weight (g) (EMT breast cancer; 10 μg/mouse intraperitoneal): 0.46 ± 0.12** g
Tumor inhibition rate % (EMT breast cancer; 15 μg/mouse intraperitoneal): 47.9%
Tumor weight (g) (EMT breast cancer; 15 μg/mouse intraperitoneal): 0.64 ± 0.15* g
Cytotoxicity (%) MDA-MB-231 [1, 7]: 15.11 ± 6.483^ns %
Cytotoxicity (%) MDA-MB-231 [1, 8]: 12.55 ± 3.037 %
Cytotoxicity (%) MDA-MB-231 [1, 9]: 21.78 ± 3.021 %
Cytotoxicity (%) SW480 [2, 7]: 23.51 ± 1.432 %
Cytotoxicity (%) SW480 [2, 8]: 44.42 ± 5.78 %
Cytotoxicity (%) SW480 [2, 9]: 50.64 ± 2.068 %
Tumor inhibition rate % (MC38 colon cancer [6]; [10]): 55.3%
Tumor weight (MC38 colon cancer [6]; [10]): 0.36 ± 0.11 g
Tumor inhibition rate % (MC38 colon cancer [6]; [11]): 53.5%
Tumor weight (MC38 colon cancer [6]; [11]): 0.38 ± 0.11 g
Tumor inhibition rate % (MC38 colon cancer [6]; [12]): 80.9%
Tumor weight (MC38 colon cancer [6]; [12]): 0.16 ± 0.03 g
Tumor inhibition rate % (MC38 colon cancer [6]; [13]): 57.8%
Tumor weight (MC38 colon cancer [6]; [13]): 0.34 ± 0.08 g
Tumor inhibition rate % (MC38 colon cancer [6]; [14]): 77.1%
Tumor weight (MC38 colon cancer [6]; [14]): 0.26 ± 0.07 g
phosphorylation levels of ERK, AKT and JNK (ERK, AKT and JNK): the expression levels of p-ERK and p-AKT in the TAT-SHP2-N-SH2 fusion protein stimulation group have the most obvious changes
level of IL-2 secreted by T lymphocytes (IL-2): significantly increased
Tumor inhibition rate % (EMT-6 breast cancer): 8.3%
Tumor weight (g) (EMT-6 breast cancer; day 21): 0.82 ± 0.13^ns g
